From patent US20250154198A1, “PEPTIDE INHIBITORS OF INTERLEUKIN-23 RECEPTOR” (Zealand Pharma A/S, priority 2021, published 2025)
Where two headings read alike, the source gives them in different places. *1 amine or outer side, *2 acyl side, *3 side chain or, on linkers, in order; H or OH if unused. Bridges are numbered along the chain shown (N, C = ends). Primed or numbered codes have the meaning given here. Where no end group is shown, it is not given here. [ ]: non-standard residue; d: D form. 4‑Aminomethyl‑phenylacetyl = 4-aminomethyl-phenylacetyl unit, its amine closes the lactam, O=C(Cc1ccc(CN[*:1])cc1)[*:2]; 1,3‑dibromopropan‑2‑one = linker (CAS 816-39-7) joining two Cys as 1,3-dithio-propan-2-one bridge -SCH2C(=O)CH2S-; 1,3‑dibromopropan‑2‑one(3) = linker giving 1,3-dithio-propan-2-one bridge -SCH2C(=O)CH2S- between Cys; 4‑Aminomethyl‑phenylacetyl″ = N-terminal cap residue, O=C(Cc1ccc(CN[*:1])cc1)[*:2]; 2Nal = N[C@@H](Cc1ccc2ccccc2c1)C(=O)O; AEF = NCCOc1ccc(C[C@H](N)C(=O)O)cc1; 3Pal = N[C@@H](Cc1cccnc1)C(=O)O; αMeL = CC(C)C[C@](C)(N)C(=O)O; CH2COCH2 = O=C(C[*:1])C[*:2]; 3Amb = NCc1cccc(C(=O)O)c1; Dab = NCC[C@H](N)C(=O)O

T1: human IL-23R endogenously expressed on DB cells (CRL-2289) (human, UniProt Q5VWK5 24-629)
T1 sequence (looked up): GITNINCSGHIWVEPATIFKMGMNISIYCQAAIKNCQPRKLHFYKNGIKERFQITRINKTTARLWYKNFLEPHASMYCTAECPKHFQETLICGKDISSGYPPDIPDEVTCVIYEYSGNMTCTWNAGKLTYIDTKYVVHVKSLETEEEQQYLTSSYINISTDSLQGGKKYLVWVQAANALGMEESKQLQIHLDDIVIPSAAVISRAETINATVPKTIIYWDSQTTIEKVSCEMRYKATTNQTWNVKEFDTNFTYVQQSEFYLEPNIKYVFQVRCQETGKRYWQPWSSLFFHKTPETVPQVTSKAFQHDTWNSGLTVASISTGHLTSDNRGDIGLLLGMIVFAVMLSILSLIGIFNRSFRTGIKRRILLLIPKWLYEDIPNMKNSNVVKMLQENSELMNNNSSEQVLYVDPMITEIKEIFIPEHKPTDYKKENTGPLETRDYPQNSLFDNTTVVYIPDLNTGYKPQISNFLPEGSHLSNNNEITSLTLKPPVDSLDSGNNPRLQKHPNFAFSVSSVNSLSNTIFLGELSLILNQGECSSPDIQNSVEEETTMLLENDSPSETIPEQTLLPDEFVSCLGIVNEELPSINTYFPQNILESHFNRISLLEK

T2: Nluc-IL23R fusion protein (human, UniProt Q5VWK5 22-629)
T2 construct: range 22-629; Stably expressed in HEK293 cells; also called hIL-23R; human IL-23R fused to a Nanoluc luciferase enzyme; not shown: Nanoluc luciferase (Promega N1371 plasmid) at the N-terminus
T2 sequence (looked up): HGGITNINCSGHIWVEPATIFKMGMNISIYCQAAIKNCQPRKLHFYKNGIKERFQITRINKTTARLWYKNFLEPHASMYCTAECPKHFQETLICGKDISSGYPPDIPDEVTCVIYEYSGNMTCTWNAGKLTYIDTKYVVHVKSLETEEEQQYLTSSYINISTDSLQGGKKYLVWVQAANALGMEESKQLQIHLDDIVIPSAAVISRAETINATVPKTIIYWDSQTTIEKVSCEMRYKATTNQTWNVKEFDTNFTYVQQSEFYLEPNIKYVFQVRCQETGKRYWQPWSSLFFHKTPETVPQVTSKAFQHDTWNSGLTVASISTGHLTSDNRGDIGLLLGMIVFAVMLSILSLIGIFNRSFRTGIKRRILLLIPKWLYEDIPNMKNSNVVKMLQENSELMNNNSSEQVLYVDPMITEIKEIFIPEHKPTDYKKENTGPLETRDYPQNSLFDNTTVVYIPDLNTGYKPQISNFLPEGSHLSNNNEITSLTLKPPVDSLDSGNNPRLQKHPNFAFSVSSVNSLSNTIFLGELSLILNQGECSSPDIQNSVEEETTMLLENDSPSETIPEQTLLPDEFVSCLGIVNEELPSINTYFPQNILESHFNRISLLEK


Experiments:
[1] = biological target: T1, human IL-23R endogenously expressed on …; assay: cell-based or functional assay
[2] = biological target: T1, human IL-23R endogenously expressed on …; assay: cell-based or functional assay; remark: listed apart in the source
[3] = biological target: T1, human IL-23R endogenously expressed on …; assay: cell-based or functional assay; remark: listed apart in the source
[4] = biological target: T2, Nluc-IL23R fusion protein; assay: BRET displacement of TAMRA-labelled peptide, Nluc-IL23R membranes
[5] = biological target: T1, human IL-23R endogenously expressed on …; assay: cell-based or functional assay; remark: listed apart in the source
[6] = biological target: T1, human IL-23R endogenously expressed on …; assay: cell-based or functional assay; remark: listed apart in the source

Binder	IC50 (pSTAT3) [1]	Ki [4]	also measured
DESCXQCWWLKR (HELM PEPTIDE1{[ac].D.E.S.C.[Cc1cccc2c(C[C@H](N[*:1])C(=O)[*:2])c[nH]c12].Q.C.W.W.L.K.R.[am]}|CHEM1{[O=C(C[*:1])C[*:2]]}$PEPTIDE1,PEPTIDE1,3:R3-12:R3|PEPTIDE1,CHEM1,5:R3-1:R1|PEPTIDE1,CHEM1,8:R3-1:R2$$$V2.0; SMILES CC(=O)N[C@@H](CC(=O)O)C(=O)N[C@H]1CCC(=O)NCCCC[C@@H](C(=O)N[C@@H](CCCNC(=N)N)C(N)=O)NC(=O)[C@H](CC(C)C)NC(=O)[C@H](Cc2c[nH]c3ccccc23)NC(=O)[C@H](Cc2c[nH]c3ccccc23)NC(=O)[C@@H]2CSCC(=O)CSC[C@H](NC(=O)[C@H](CO)NC1=O)C(=O)N[C@@H](Cc1c[nH]c3c(C)cccc13)C(=O)N[C@@H](CCC(N)=O)C(=O)N2) [Compound 16]	461 nM		IC50 (pSTAT3) [2]: 461 nM
Ac-DKSCWQCW[2Nal]LER-NH2 (lactam 2-11; bridge 4-7; not fully specified (bridges); printed as [Ac]-DK(1c)SC(2d)WQC(2d)W[2-Nal]LE(1c)R-[NH2]) [Compound 20]	79.2 nM		IC50 (pSTAT3) [3]: 79.2 nM
[4‑Aminomethyl‑phenylacetyl]SCWQC[AEF][2Nal][αMeL]ES-NH2 (lactam (positions not given here); linker 3-6 via CH2COCH2; not fully specified (bridges); printed as [4-Aminomethyl-phenylacetyl](1c)*SC(2a)WQC(2a)[Y(2-aminoethoxy)][2-Nal][2-Me-Leu]E(1c)S-[NH2]) [Compound 81]	20.7 nM	0.318 nM	
[4‑Aminomethyl‑phenylacetyl]SEWQ[Dab][AEF][2Nal][αMeL]E[Dab]-NH2 (lactam N-10, 3-6) [Compound 125]	21.2 nM	0.599 nM	
[4‑Aminomethyl‑phenylacetyl]SEWQ[Dab][AEF][2Nal][αMeL]E-{NH‑3‑aminopropanoyl} (lactam N-10, 3-6) [Compound 137]	24.1 nM	0.518 nM	
Ac-KTCWQC[AEF][2Nal][αMeL]E[Dab][3Pal]-NH2 (lactam 1-10; linker 3-6 via 1,3‑dibromopropan‑2‑one(3)) [Compound 155]	30.5 pM	0.00805 nM	
Ac-DKSCWQCW[2Nal]LER-NH2 (lactam 2-11; bridge 4-7; not fully specified (bridges); printed as [Ac]-DK(1c)SC(2f)WQC(2f)W[2-Nal]LE(1c)R-[NH2]) [Compound 22]	> 1 µM		IC50 (pSTAT3) [3]: > 1 µM
[4‑Aminomethyl‑phenylacetyl]SCWQC[AEF][2Nal][αMeL]E[dR]-NH2 (lactam (positions not given here); linker 3-6 via CH2COCH2; not fully specified (bridges); printed as [4-Aminomethyl-phenylacetyl](1c)*SC(2a)WQC(2a)[Y(2-aminoethoxy)][2-Nal][2-Me-Leu]E(1c)[{d}R]-[NH2]) [Compound 80]	10.5 nM	0.15 nM	
[4‑Aminomethyl‑phenylacetyl″]SEWQ[Dab][AEF][2Nal][αMeL]E[Dab][3Pal]-NH2 (lactam N-10, 3-6; SMILES CC(C)C[C@]1(C)NC(=O)[C@H](Cc2ccc3ccccc3c2)NC(=O)[C@H](Cc2ccc(OCCN)cc2)NC(=O)[C@@H]2CCNC(=O)CC[C@H](NC(=O)[C@H](CO)NC(=O)Cc3ccc(cc3)CNC(=O)CC[C@@H](C(=O)N[C@@H](CCN)C(=O)N[C@@H](Cc3cccnc3)C(N)=O)NC1=O)C(=O)N[C@@H](Cc1c[nH]c3ccccc13)C(=O)N[C@@H](CCC(N)=O)C(=O)N2) [Compound 122]	27.7 pM	0.00541 nM	
Ac-ESCWQCWWLKR-NH2 (lactam 1-10; linker 3-6 via 1,3‑dibromopropan‑2‑one) [Compound 10]	617 nM		IC50 (pSTAT3) [5]: 617 nM
Ac-DKSCWQCW[2Nal]LER-NH2 (lactam 2-11; bridge 4-7; not fully specified (bridges); printed as [Ac]-DK(1c)SC(2e)WQC(2e)W[2-Nal]LE(1c)R-[NH2]) [Compound 21]	> 1 µM		IC50 (pSTAT3) [3]: > 1 µM
[3Amb]SCWQC[AEF][2Nal][αMeL]ER[3Pal]-NH2 (lactam (positions not given here); linker 3-6 via CH2COCH2; not fully specified (bridges); printed as [(3-Aminomethyl)benzoyl](1c)*SC(2a)WQC(2a)[Y(2-aminoethoxy)][2-Nal][2-Me-Leu]E(1c)R[3-(3-Pyridyl)-Ala]-[NH2]) [Compound 78]	0.132 nM	0.0205 nM	
[4‑Aminomethyl‑phenylacetyl]SCWQC[AEF][2Nal][αMeL]E[Dab]-NH2 (lactam (positions not given here); linker 3-6 via CH2COCH2; not fully specified (bridges); printed as [4-Aminomethyl-phenylacetyl](1c)*SC(2a)WQC(2a)[Y(2-aminoethoxy)][2-Nal][2-Me-Leu]E(1c)[Dab]-[NH2]) [Compound 82]	11.1 nM	0.0665 nM	
[4‑Aminomethyl‑phenylacetyl]SCWQC[AEF][2Nal][αMeL]E[Dab][3Pal]-NH2 (lactam N-10; linker 3-6 via 1,3‑dibromopropan‑2‑one(3)) [Compound 120]	54.2 pM	0.00938 nM	
Ac-DKSCWQCWWLER-NH2 (lactam 2-11; linker 4-7 via 1,3‑dibromopropan‑2‑one) [Compound 7]	159 nM		IC50 (pSTAT3) [6]: 159 nM
